Article PMC8695127 (2021)

T1: SARS-CoV-2 spike (S) protein peptide on HLA-DPA1*01:03 / HLA-DPB1*04:01 (human)
T1 peptide: TFEYVSQPFLMDLE

T2: SARS-CoV-2 spike (S) protein peptide on HLA-DPA1*01:03 / HLA-DPB1*04:01 (human)
T2 peptide: CTFEYVSQPFLMDLE

T3: SARS-CoV-2 spike (S) protein peptide on HLA-DPA1*01:03 / HLA-DPB1*04:01 (human)
T3 peptide: TFEYVSQPFLMDLE


What was measured:
[1] = target: T1, SARS-CoV-2 spike (S) protein peptide on …; assay: multimer staining
[2] = target: T2, SARS-CoV-2 spike (S) protein peptide on …; assay: activation reporter or marker
[3] = target: T3, SARS-CoV-2 spike (S) protein peptide on …; assay: multimer staining

Binder	binding result [1]	binding result [2]	binding result [3]
TCR6.3 (TCR) alpha TRAV35 TRAJ42 CDR3: CAGMNYGGSQGNLIF beta TRBV6-3 TRBJ1-2 CDR3: CASSYRGAYGYTF	recognises	recognises	–
TCR4.1 (TCR) alpha TRAV35 TRAJ42 CDR3: CAGMNYGGSQGNLIF beta TRBV4-1 TRBJ1-2 CDR3: CASSQGVGYTF	recognises	recognises	recognises
